Test results taken from patent US20200261603A1 (Astellas, published 2020).
Substitutions are numbered along the chain they refer to.

B1: P10-2 Fab (Fab, V domains shown)
VH: QVQLVQSGAEVKKPGASVKVSCKASGYTFTNYGLSWVRQAPGQGLEWMGENHPGSGIIYHNEKFRGRVTLTADRSTSTAYMELSSLRSEDTAVYYCARSSGTRGFDYWGQGTLVTVSS
VL: DVVMTQTPLSLSVTPGQPASISCRSSQSIVHSNGNTYLEWYLQKPGQSPQLLIYRVSNRFSGVPDRFSGSGSGTDFTLKISRVEAEDVGVYYCFQGSHGPWTFGQGTKLEIKR
modifications: heavy chain N-terminal glutamine was modified into pyroglutamic acid in a great majority of purified antibodies
notes: expressed in Expi293F cells; also called anti-human MUC1 antibody Fab fragment P10-2
B2: mouse chimeric P10-2 IgG (antibody, V domains shown)
VH: B1 VH
VL: B1 VL
notes: Antibody in which the VH and VL domains of P10-2 Fab were fused with mouse IgG2a CH1 to CH3 domains and a mouse κ chain CL domain; not shown: mouse IgG2a CH1 to CH3 domains; mouse κ chain CL domain
B3: P10-1 Fab Dye (Fab, V domains shown)
VH: B1 VH with D106A
VL: B1 VL
modifications: IRDye800CW (NHS ester) on Lys of the Fab fragment; number and positions not stated
notes: also called IRDye800CW-labeled P10-1 Fab
B4: P10-1 Fab (Fab, V domains shown)
VH: B1 VH with D106A
VL: B1 VL
notes: expressed in Expi293F cells; also called anti-human MUC1 antibody Fab fragment P10-1

What was measured:
[1] = target: T1, human cancer-specific MUC1 (human, UniProt P15941 24-1255, cancer-specific incomplete O-glycosylation (T, Tn, 2,3ST) of threonine at position 9 of the 20-amino acid tandem repeat … (SEQ ID NO: 15), as the background describes it); experiment: Cell ELISA on formalin-fixed T-47D cells, HRP anti-human Igκ, luminescence
T1 construct: whole, on cells; also called Mucin 1; human MUC1

[2] = target: T1, human cancer-specific MUC1; experiment: immunostaining of a human bladder cancer tissue array, 0.25 µg/mL primary antibody, Polymer-HRP/DAB

| Binder | fold binding activity compared to 1B2 Fab [1] | also measured |
| --- | --- | --- |
| B1 | ≥ 10 times (vs 1B2 Fab) |  |
| B2 |  | binding result [2]: binds |
| B3 |  | binding result [1]: binds |
| B4 | ≥ 10 times (vs 1B2 Fab) |  |
